Laboratory results: patent US20210130437A1 (ALPINE IMMUNE SCIENCES, published 2021)
Residue numbers refer to the chain shown, from its start. Names and notes keep the numbering of the source.

T1: CD226 (Homo sapiens (Human), UniProt Q15762 19-336)
T1 construct: on transfected cells
T1 sequence: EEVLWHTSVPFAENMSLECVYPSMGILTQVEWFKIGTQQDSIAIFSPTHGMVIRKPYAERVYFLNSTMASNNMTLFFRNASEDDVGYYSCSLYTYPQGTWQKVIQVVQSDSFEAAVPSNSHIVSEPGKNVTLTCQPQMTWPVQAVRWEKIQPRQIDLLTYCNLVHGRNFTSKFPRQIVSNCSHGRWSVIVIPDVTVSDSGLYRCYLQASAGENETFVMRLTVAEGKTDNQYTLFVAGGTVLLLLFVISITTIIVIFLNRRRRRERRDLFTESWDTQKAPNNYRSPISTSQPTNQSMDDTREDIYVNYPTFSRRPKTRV

T2: TIGIT (Homo sapiens (Human), UniProt Q495A1 22-244)
T2 construct: on transfected cells
T2 sequence: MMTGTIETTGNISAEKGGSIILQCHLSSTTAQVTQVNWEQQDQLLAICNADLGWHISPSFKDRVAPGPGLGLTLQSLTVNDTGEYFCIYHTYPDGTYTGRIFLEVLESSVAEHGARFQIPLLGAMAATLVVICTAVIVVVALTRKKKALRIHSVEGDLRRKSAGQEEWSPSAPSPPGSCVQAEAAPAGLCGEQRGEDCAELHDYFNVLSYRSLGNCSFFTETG

T3: CD96 (UniProt P40200 22-585, limits assumed)
T3 construct: whole, on cells; on transfected cells
T3 sequence (looked up): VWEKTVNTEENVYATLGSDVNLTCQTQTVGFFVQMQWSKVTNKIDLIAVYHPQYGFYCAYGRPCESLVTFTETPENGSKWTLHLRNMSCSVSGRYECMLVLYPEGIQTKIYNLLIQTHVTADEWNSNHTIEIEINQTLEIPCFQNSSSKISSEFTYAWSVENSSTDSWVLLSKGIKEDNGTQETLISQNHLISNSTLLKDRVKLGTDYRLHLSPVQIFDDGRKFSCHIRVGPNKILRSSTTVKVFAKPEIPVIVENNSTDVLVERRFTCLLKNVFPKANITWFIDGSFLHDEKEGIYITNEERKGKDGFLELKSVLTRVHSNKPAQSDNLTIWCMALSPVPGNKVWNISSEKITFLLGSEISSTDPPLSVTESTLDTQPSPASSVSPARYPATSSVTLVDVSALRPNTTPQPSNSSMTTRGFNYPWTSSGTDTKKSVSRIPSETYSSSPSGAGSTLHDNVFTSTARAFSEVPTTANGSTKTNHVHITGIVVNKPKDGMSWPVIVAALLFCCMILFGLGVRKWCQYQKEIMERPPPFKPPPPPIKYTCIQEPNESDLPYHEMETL

T4: human TIGIT expressed on cells (Jurkat/TIGIT cells) (human, UniProt Q495A1 22-244)
T4 sequence: T2 sequence

B1: PD-L2/CD155 Stack 3 (Fc fusion)
chain: WPPPGTGDVVVQAPTQVSGFLGDSVTLPCYLQVPNMEVTHVSQLTWARHGESGSMAVFHQTQGPWYAESKRLEFVAARLGAELRNASLRMFGLRVEDEGNYTCQFVTFPQRSRSVDIWLRVLGGGGSGGGGSGGGGSLFTVTVPKELYIIEQGSNVTLECNFDTGSHVNLGAITASLQKVENDASPHRERATLLEEQLPLGRALFHIPQVQVRDEGQYRCIIIYGDAWDYKYLTLKVKAGGGGSGGGGSEPKSSDKTHTCPPCPAPEAEGAPSVFLFPPKPKDTLMISRTPEVTCVVVDVSHEDPEVKFNWYVDGVEVHNAKTKPREEQYNSTYRVVSVLTVLHQDWLNGKEYKCKVSNKALPAPIEKTISKAKGQPREPQVYTLPPSRDELTKNQVSLTCLVKGFYPSDIAVEWESNGQPENNYKTTPPVLDSDGSFFLYSKLTVDKSRWQQGNVFSCSVMHEALHNHYTQKSLSLSPGK
notes: Homodimer; also called (CD155 IgV) (G4S)3 (PD-L2 IgV) (G4S)2 Fc
B2: Wild Type CD155 full ECD Fc (Fc fusion)
chain: WPPPGTGDVVVQAPTQVPGFLGDSVTLPCYLQVPNMEVTHVSQLTWARHGESGSMAVFHQTQGPSYSESKRLEFVAARLGAELRNASLRMFGLRVEDEGNYTCLFVTFPQGSRSVDIWLRVLAKPQNTAEVQKVQLTGEPVPMARCVSTGGRPPAQITWHSDLGGMPNTSQVPGFLSGTVTVTSLWILVPSSQVDGKNVTCKVEHESFEKPQLLTVNLTVYYPPEVSISGYDNNWYLGQNEATLTCDARSNPEPTGYNWSTTMGPLPPFAVAQGAQLLIRPVDKPINTTLICNVTNALGARQAELTVQVKEGPPSEHSGISRN
notes: not shown: Fc and linker not specified
B3: PD-L2/CD155 Stack 2 (Fc fusion)
chain: LFTVTVPKELYIIEQGSNVTLECNFDTGSHVNLGAITASLQKVENDASPHRERATLLEEQLPLGRALFHIPQVQVRDEGQYRCIIIYGDAWDYKYLTLKVKAGGGGSGGGGSEPKSSDKTHTCPPCPAPEAEGAPSVFLFPPKPKDTLMISRTPEVTCVVVDVSHEDPEVKFNWYVDGVEVHNAKTKPREEQYNSTYRVVSVLTVLHQDWLNGKEYKCKVSNKALPAPIEKTISKAKGQPREPQVYTLPPSRDELTKNQVSLTCLVKGFYPSDIAVEWESNGQPENNYKTTPPVLDSDGSFFLYSKLTVDKSRWQQGNVFSCSVMHEALHNHYTQKSLSLSPGKGGGGSGGGGSGGGGSWPPPGTGDVVVQAPTQVSGFLGDSVTLPCYLQVPNMEVTHVSQLTWARHGESGSMAVFHQTQGPWYAESKRLEFVAARLGAELRNASLRMFGLRVEDEGNYTCQFVTFPQRSRSVDIWLRVL
notes: Homodimer; also called (PD-L2 IgV) (G4S)2 Fc (G4S)3 (CD155 IgV)
B4: PD-L2/CD155 Stack 5 (Fc fusion)
chain: EPKSSDKTHTCPPCPAPEAEGAPSVFLFPPKPKDTLMISRTPEVTCVVVDVSHEDPEVKFNWYVDGVEVHNAKTKPREEQYNSTYRVVSVLTVLHQDWLNGKEYKCKVSNKALPAPIEKTISKAKGQPREPQVYTLPPSRDELTKNQVSLTCLVKGFYPSDIAVEWESNGQPENNYKTTPPVLDSDGSFFLYSKLTVDKSRWQQGNVFSCSVMHEALHNHYTQKSLSLSPGKGGGGSGGGGSGGGGSWPPPGTGDVVVQAPTQVSGFLGDSVTLPCYLQVPNMEVTHVSQLTWARHGESGSMAVFHQTQGPWYAESKRLEFVAARLGAELRNASLRMFGLRVEDEGNYTCQFVTFPQRSRSVDIWLRVLGGGGSGGGGSGGGGSLFTVTVPKELYIIEQGSNVTLECNFDTGSHVNLGAITASLQKVENDASPHRERATLLEEQLPLGRALFHIPQVQVRDEGQYRCIIIYGDAWDYKYLTLKVKA
notes: Homodimer; also called Fc (G4S)3 (CD155 IgV) (G4S)3 (PD-L2 IgV)
B5: PD-L2/CD155 Stack 4 (Fc fusion)
chain: LFTVTVPKELYIIEQGSNVTLECNFDTGSHVNLGAITASLQKVENDASPHRERATLLEEQLPLGRALFHIPQVQVRDEGQYRCIIIYGDAWDYKYLTLKVKAGGGGSGGGGSGGGGSWPPPGTGDVVVQAPTQVSGFLGDSVTLPCYLQVPNMEVTHVSQLTWARHGESGSMAVFHQTQGPWYAESKRLEFVAARLGAELRNASLRMFGLRVEDEGNYTCQFVTFPQRSRSVDIWLRVLGGGGSGGGGSEPKSSDKTHTCPPCPAPEAEGAPSVFLFPPKPKDTLMISRTPEVTCVVVDVSHEDPEVKFNWYVDGVEVHNAKTKPREEQYNSTYRVVSVLTVLHQDWLNGKEYKCKVSNKALPAPIEKTISKAKGQPREPQVYTLPPSRDELTKNQVSLTCLVKGFYPSDIAVEWESNGQPENNYKTTPPVLDSDGSFFLYSKLTVDKSRWQQGNVFSCSVMHEALHNHYTQKSLSLSPGK
notes: Homodimer; also called (PD-L2 IgV) (G4S)3 (CD155 IgV) (G4S)2 Fc
B6: PD-L2/CD155 Stack 6 (Fc fusion)
chain: EPKSSDKTHTCPPCPAPEAEGAPSVFLFPPKPKDTLMISRTPEVTCVVVDVSHEDPEVKFNWYVDGVEVHNAKTKPREEQYNSTYRVVSVLTVLHQDWLNGKEYKCKVSNKALPAPIEKTISKAKGQPREPQVYTLPPSRDELTKNQVSLTCLVKGFYPSDIAVEWESNGQPENNYKTTPPVLDSDGSFFLYSKLTVDKSRWQQGNVFSCSVMHEALHNHYTQKSLSLSPGKGGGGSGGGGSGGGGSLFTVTVPKELYIIEQGSNVTLECNFDTGSHVNLGAITASLQKVENDASPHRERATLLEEQLPLGRALFHIPQVQVRDEGQYRCIIIYGDAWDYKYLTLKVKAGGGGSGGGGSGGGGSWPPPGTGDVVVQAPTQVSGFLGDSVTLPCYLQVPNMEVTHVSQLTWARHGESGSMAVFHQTQGPWYAESKRLEFVAARLGAELRNASLRMFGLRVEDEGNYTCQFVTFPQRSRSVDIWLRVL
notes: Homodimer; also called Fc (G4S)3 (PD-L2 IgV) (G4S)3 (CD155 IgV)
B7: Wildtype CD155 IgV Fc (Fc fusion, not shown: a dimerising Fc or GST)
chain: WPPPGTGDVVVQAPTQVPGFLGDSVTLPCYLQVPNMEVTHVSQLTWARHGESGSMAVFHQTQGPSYSESKRLEFVAARLGAELRNASLRMFGLRVEDEGNYTCLFVTFPQGSRSVDIWLRVL
B8: variant CD155 IgV-Fc A81V, L83P (Fc fusion, not shown: a dimerising Fc or GST)
chain: B7 chain with A81V, L83P
B9: variant CD155 IgV-Fc P18L, L79V, F91S (Fc fusion, not shown: a dimerising Fc or GST)
chain: B7 chain with P18L, L79V, F91S
B10: PD-L2 SIP with wildtype PD-L2 IgV (SEQ ID NO:115), Avitag and His tag (ligand)
chain: LFTVTVPKELYIIEHGSNVTLECNFDTGSHVNLGAITASLQKVENDTSPHRERATLLEEQLPLGKASFHIPQVQVRDEGQYQCIIIYGVAWDYKYLTLKVKAGLNDIFEAQKIEWHEHHHHHH
notes: also called PD-L2 secreted immunomodulatory protein
B11: PD-L2 SIP with variant PD-L2 IgV H15Q,T47A,S67L,R76G,Q82R,V89D (SEQ ID NO:342), Avitag and His tag (ligand)
chain: B10 chain with H15Q, T47A, S67L, R76G, Q82R, V89D
notes: also called variant PD-L2 SIP
B12: PD-L2 SIP with variant PD-L2 IgV H15Q,V31M,S67L,Q82R,V89D (SEQ ID NO:316), Avitag and His tag (ligand)
chain: B10 chain with H15Q, V31M, S67L, Q82R, V89D
notes: also called variant PD-L2 SIP
B13: PD-L2 SIP with variant PD-L2 IgV H15Q,T47A,K65R,S67L,Q82R,V89D (SEQ ID NO:328), Avitag and His tag (ligand)
chain: B10 chain with H15Q, T47A, K65R, S67L, Q82R, V89D
notes: also called variant PD-L2 SIP
B14: Wild Type PD-L2 full ECD Fc (Fc fusion)
chain: LFTVTVPKELYIIEHGSNVTLECNFDTGSHVNLGAITASLQKVENDTSPHRERATLLEEQLPLGKASFHIPQVQVRDEGQYQCIIIYGVAWDYKYLTLKVKASYRKINTHILKVPETDEVELTCQATGYPLAEVSWPNVSVPANTSHSRTPEGLYQVTSVLRLKPPPGRNFSCVFWNTHVRELTLASIDLQSQMEPRTHPT
notes: as for B2
B15: PD-L2/CD155 Stack 1 (Fc fusion)
chain: WPPPGTGDVVVQAPTQVSGFLGDSVTLPCYLQVPNMEVTHVSQLTWARHGESGSMAVFHQTQGPWYAESKRLEFVAARLGAELRNASLRMFGLRVEDEGNYTCQFVTFPQRSRSVDIWLRVLGGGGSGGGGSEPKSSDKTHTCPPCPAPEAEGAPSVFLFPPKPKDTLMISRTPEVTCVVVDVSHEDPEVKFNWYVDGVEVHNAKTKPREEQYNSTYRVVSVLTVLHQDWLNGKEYKCKVSNKALPAPIEKTISKAKGQPREPQVYTLPPSRDELTKNQVSLTCLVKGFYPSDIAVEWESNGQPENNYKTTPPVLDSDGSFFLYSKLTVDKSRWQQGNVFSCSVMHEALHNHYTQKSLSLSPGKGGGGSGGGGSGGGGSLFTVTVPKELYIIEQGSNVTLECNFDTGSHVNLGAITASLQKVENDASPHRERATLLEEQLPLGRALFHIPQVQVRDEGQYRCIIIYGDAWDYKYLTLKVKA
notes: Homodimer; also called (CD155 IgV)-(G4S)2-Fc-(G4S)3 (PD-L2 IgV)

These binders were tested against T5, human PD-1 expressed on cells (Jurkat/PD-1 cells) (human, UniProt Q15116 21-288) (assay: flow cytometry, Jurkat/PD-1 cells).
T5 construct: also called PDCD1
T5 sequence (Q15116 21-288): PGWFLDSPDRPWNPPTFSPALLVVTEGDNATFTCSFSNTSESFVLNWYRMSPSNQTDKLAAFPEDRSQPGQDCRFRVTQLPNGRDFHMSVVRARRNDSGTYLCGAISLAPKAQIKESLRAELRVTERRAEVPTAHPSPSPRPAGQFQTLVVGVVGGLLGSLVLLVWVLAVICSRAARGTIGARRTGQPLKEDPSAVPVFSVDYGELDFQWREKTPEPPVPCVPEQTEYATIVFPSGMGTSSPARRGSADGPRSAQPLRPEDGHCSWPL

MFI at 6.25 nM	Binder
91 MFI	B1
64 MFI	B2
16300 MFI	B3
108 MFI	B4
9220 MFI	B5
66 MFI	B6

Each binder was assayed against T1, CD226 (assay: flow cytometry, transfected cells).

MFI parental ratio	Binder
1 ratio	B7
1.1 ratio	B8
1.4 ratio	B9

These binders were tested against T2, TIGIT (assay: flow cytometry, transfected cells).

MFI parental ratio	Binder
1 ratio	B7
1.1 ratio	B8
1.5 ratio	B9

What follows are binders tested against T3, CD96 (assay: flow cytometry, transfected cells).

MFI parental ratio	Binder
1 ratio	B7
0.8 ratio	B8
1.1 ratio	B9

What follows are binders tested against T6, PD-1 stably expressed on Jurkat/IL-2 reporter cells (Jurkat/PD-1) (human, UniProt Q15116 21-288) (assay: culture supernatant on PD-1+ Jurkat cells, surface bound PD-L2 detected with anti-his-APC by flow cytometry).
T6 construct: also called Jurkat/PD-1 cells; PD-1+ Jurkat cells
T6 sequence (Q15116 21-288): as above

binding result	Binder
binds	B10
binds	B11
binds	B12
binds	B13

Each binder was assayed against T4, human TIGIT expressed on cells … (assay: flow cytometry, Jurkat/TIGIT cells).

MFI at 6.25 nM	Binder
46 MFI	B14
22300 MFI	B1
9100 MFI	B3
5490 MFI	B4
14500 MFI	B5
19900 MFI	B15
9970 MFI	B6
